# In the DeepSol protein solubility set:
# Test: soluble on expression in E. coli; label from the status in PepcDB or PDB records
row,Sequence,soluble on expression in E. coli
1,MTIKNVICDIDGVLMHDNVAVPGAAEFLHGIMDKGLPLVLLTNYPSQTGQDLANRFATAGVDVPDSVFYTSAMATADFLRRQEGKKAYVVGEGALIHELYKAGFTITDVNPDFVIVGETRSYNWDMMHKAAYFVANGARFIATNPDTHGRGFYPACGALCAGIEKISGRKPFYVGKPSPWIIRAALNKMQAHSEETVIVGDNLRTDILAGFQAGLETILVLSGVSSLDDIDSMPFRPSWIYPSVAEIDVI,soluble
2,MTIKTGNIRTNSLAEIYRNSPVFQNLRNPDKYKGKCGVCEFRYVCGGSRSRAYAMTGGLYGKMAGDPLEHHHHHH,not soluble
3,MTITGIIAEFNPFHNGHKYLLDQAEGLKIVAMSGNFMQRGEPAIVDKWTRTQMALENGADLVVELPFLVSVQAADFFGQGAMDILDRLGIDSLVFGTEEVRDYQKIADLYTEKGAEMEKFVENLPDSLSYPQKTQAMWKEFAGLDFSGNTPNHVLALAYAKAVAGRNIKLHPIQRQGAGYHSVNKDVDFASATALRQHQKDQDFLERFMPSVALFEQASKVIWEDYFPLLRYQILSNPDLTTIYQVNQEMAVRIKEAIKTAQSVEELVELVTTKRYTKARVRRLLTYILMQARESDLPEAIHVLGFTEKGRQHLKSLKGQVSLVSRIGKEPWDAMTQKADQIYQLGKPSIAEQNFGRVPIRIETN,soluble
4,MTITQRDASSADAICLSALGMQVFLDTYATQGIRESIAREALDAFSPQAFAHLLAEPATLIIVAESQGHLIGFAQFALRTDHPMLGIPTAAELQRLYVQERFTGRGVGRLLLEAAEQRAAAGNATLLWATVWVGNPRALGVYPRQGYEVKGSPRYVFQGETHENCLFAKAIVKAVR,not soluble
5,MTITSGIDVGTGAIKVVVFEVDGDQERCLGKRVERVRQRDPLKLAGDIYDDLLRETGLARADVAYCATTGEGESLTFHTGHFYSMTTHARGAIYLNPGSRAVLDTGALHGRAIRMDERGKVLAYKMTSQCASGSGQFLENIARYLGIAQDEIGSLSQRADNPEKVSGICAVLAETDVINMVSRGISSPNILRGIHESMADRLAKLLKTLGSLDGTVQMTGGLALDAGLVEAMKDAVVKAKVDVAIESHPDAIYAGAIGAALWGAFRHKRLADMAHAA,not soluble
6,MTKAKRTYEPWYWANEHTRLYMRRGYLLPGVSVEERVKEIAQRAEALTKVEGFGRKFLEYMARGWYSLATPIWANYGLRRGLPISCYGTYVEDDTASILRAVAEVGMMSKQGGGTSLYLGRLRPRGAPIRDNGESNGSFAFASLFDRVIEVFNQGSTRRGQCAAYLDVEHPDLEEWLSIQREHSPVQSLFWGVSVGDRWLEEMIAGDGEKRARWAKILKSRAEVGIPYLFFRDNANQKAPEVFRALGKTIWASNLCTEIMLPSSEEESFVCCLSSLNLLHYEEWKDTDAVETLVIFLDSVLDDFIEKAEGIPYMERAVRFAKRYRAIGLGVLGWHSYLQSQRIPLESPEAFRRNAEIFKTIRERAEEASRWLRKRHPEDELAGVGELKERRNATLLAIAPTKSSAFILGQVSPSIEPYTSNYYLKDLQKARVPFKNPFLEEVLREKGKDEEKVWRSILEHNGSVQHLDFLTDEEKAVFKTFAEISQMTLVNLAASRQKHIDQGQSLNLVIHPEAPPRDVNALVLHAWRSGLKALYYQFSQSVAQAYSRDLLLSCQACEG,soluble
7,MTKIAESKIIVGLDIGTSKIAVVVGEVLPDGVINVLGASNCPSKGIDRGGVIDLDAAVNSIQRAIEQAESVSNCQIMGVTLAISGQHITALNESGVIPLSGTVVRKEDIDAAIHIAHSIKLPDG,not soluble
8,MTKKQKEILFCDYFEEWVEVYKVGAIAKITLAKYYNAAKQLRDLCPKLFISDFDRREYQRIINVYAETHEKQTVKDFHHHVKACIKDLFHDGLIDKDPTYRVVIKGAEPTRAKKRKFLQKEELSKLLQSLDMSQIGFGWFVMLVAKTGMRYAEALAITPADFDWTAQTISINKTWDYKYNKGFAKTKTLSSVRTIKIDWQIVGQFKPLIKDFPEDEPIFVEKFGDGTYKRQFNSTINNFLAVKCN,not soluble
9,MTKQLPPGQFETEKWPILHEGDVYQFDEATWNFRLFGDVKEEVSLSYQEVMQLPKTVSTIDMHCVTTWSKFDTTFEGIAFREFLRFVELDPDVKYVKIYGYLNGDRFGYSANLPLEALMGDDALFVYRWKDKHHDWQDISPKHGYPLRFIPPATFYLWKGAKWASGIRFMKEDEPGYWEERGYSMTANPFKEERFAEWVPRIRF,not soluble
10,MTKVIAITGKGGTGKTAVAALLIRSLSKKGQFILAVDADADTNLPETLGCENVKTIGDAKEFLQAEITKPRPDNPDMNKESVLQSKVYEIIEEMPGYDLLVMGRPEGSGCYCYVNNLLRGIMDKLVKNYDLVVIDAEAGLEHFSRKIIRDIDDLIVVTDASRRGFRTAERIHELVNELESNIGSIHVIANKVTDANREKLVKLAEELKLNLIGMIPLDPKIEEMDIKGIPLFEIPDDSVAAVEIENIVKKLGF,not soluble
11,MTLKTSVLALLLDNVHVLLIANPESTTQTQKLFRRVVPALMALDGVSLEARFTHYGGHAEEMVAGLTVDDFDVIIPAGGDGTVNEVINGLLGSAEGDFRNLEDLPAIAVLPTGSANVFARALGYPTDPYAAADALVELIRKNHTRTITLGTWKGDDQGTRWFAVNAGFGIDADVIARVERARSFGFAASPLLYLQVSLRAWVKTQIKPPKITVEAVDSKGHKLQKEEVPMLLASNTNPWTFLGPLPVVTNPQNSFDTGLGLFGLTSVRGFGGVAAMMHLIGVGHGRKLEKLIAKRTIAFDDAEKVTLTCDSDQRFQVDGEYEGKPTKVVLESITDAVRVYAPKTHPTPPIMNWAVHLFKHVRDFLRVRTFGI,not soluble
12,MTLNKTDRIVITLGKQIVHGKYVPGSPLPAEAELCEEFATSRNIIREVFRSLMAKRLIEMKRYRGAFVAPRNQWNYLDTDVLQWVLENDYDPRLISAMSEVRNLVEPAIARWAAERATSSDLAQIESALNEMIANNQDREAFNEADIRYHEAVLQSVHNPVLQQLSIAISSLQRAVFERTWMGDEANMPQTLQEHKALFDAIRHQDGDAAEQAALTMIASSTRRLKEIT,not soluble
13,MTLPMQETRFSILLDELAAKQEAAIAPHLLADGTKVWIRKAGRHNARWRYALLGMVARYLKLGVLKPVPSLGGEPAIATESKRLYELRSAGIAVPELLAVRKNALMFGNLEGIPLDAQIRQEAEAGKSDAWLAGLEAIARVHKKRQFLSQAFARNMMSDGKNISFLDFEDDPSEVLTIAQCQARDWLCYIHSTALILKNGGLLEAAAEKWGGVLSDQPAEIQKLIAATVKPILPIRRLEHPRWGRDALRLAASISLISLADMPP,not soluble
14,MTLSILVAHDLQRVIGFENQLPWHLPNDLKHVKKLSTGHTLVMGRKTFESIGKPLPNRRNVVLTSDTSFNVEGVDVIHSIEDIYQLPGHVFIFGGQTLFEEMIDKVDDMYITVIEGKFRGDTFFPPYTFEDWEVASSVEGKLDEKNTIPHTFLHLIRKK,soluble
15,MTLTVAAPCVQTVTEPSKMEMQAESTSHITIRFTEMVGDAQKPTYGSISSAGADLYSAEDVVVPANGKLCVSTGLQIELPIGYYGRVAPRSGLAAKHFIDVGAGVIDSDYRGEVKVLLFNFNTTAFEVKTGDRIAKLICEQIGNGTYEEVKSLPSTNRGAGGFGSTGESTMNSETANPATNLERITVRFTQLNENAQTPTYGSEEAAGADLYSAEDITVPAHGKCCVSTGIQMELPFGYYGRVAPRSGLAAKHFIDVGAGVIDSDYRGEVKVLLFNFTDNAFEVKKGDRIAQLICEKIGHCVYEAASELENTDRGAGGFGSTGQNTMEAEPALKKSKTEQIKTSATSVTIQITKSNDNAQMPTYGSAEAAGADLYSAEDVTVPARGKLCVSTGIQMALPIGYYGRVAPRSGLAAKHFIDVGAGVIDSDYRGEVKVLLFNFGENDFEVKKGDRIAQLVCEQIALCTYSKVESLEVTERGAGGFGSTGQYITL,not soluble
16,MTLWDRLSRLVRANLNDLLRRAEDPEKIIEQALLDMKQALREAREQVAEALAEQKRLEREVESHEREAALWEEKAREALKAGREDLAREALRRKKRALDLAEGFKAQLSEHKALTERLMTQLKALEAKIDEAEARKKLLLARKKGVEAAETVRRMESRLDQHPALEAFEEMEARILAMEDRHQALEALDQADLEKEFQALSAEKEVEEDLLRLKRELGQAAAALEHHHHHH,not soluble
17,MTMHETTDRLFEIAKEQGVLKPADIAERLNISQQALKNWESRGIAAKALPEVAKAFGVSETWLRTGEGSRTAPVLIDPDLPHEVKDIHRPMTWSSNDPLPDDDYVFVPYLKESCFKGGVGTYEIPDYNGYRLPFGKSTLKRKGINPDNVFCCTLTGDSMEEKIAEDAAIAVDTGETAIRDGKIYAFAQDGMFRVKYLIRQPGNSVLIRSHNSGFYGDENAPLDSLTVIGRVFWWSVLD,not soluble
18,MTMPVNTIMGLFAKSPIKPLQRHVVCVNECCSHLINFFEVCNKGDWEKAGEIRAQISHLEKEADVLKREIRLKLPRGLFMPVDRSDMLELLTQQDKLANLAKDIAGRVYGRQLVIPEPLQENFIAYVRRCLDAANQAQNVINELDELLETGFKGREVTLVAEMIHQLDVIEDDTDSMQIRLRQQLMAIESKMNPIDVMFLYKILEWVGGIADQAQRVGARLELMLSRS,not soluble
19,MTMQFKIPTVLRSQEIIDKSFSRASKIEEPYFPDKVERIKKEVQDRISAIESISCSHLDKLVKRFPSIERMHPFYRSLIDLMFDVDQYKIALSKVDATSANIKRISTEYIRKLRPVKDVGNANQIMRAYYGRFASLIEDLNETLLFLGRCRDYIRKLPEVRTDLKTYIIAGMPNVGKSSLLASLTTAKPKIASYPFTTKNVIIGYNESGSERIQFIDTPGILDRDFSEMNEIEKNAILAIRFIEGKIIFLFDYSTESLYTREQQEHLYEQIKNNINPNIIRVQTKLDISTEKVENIAISVNIESGLEPLRKIIFDGGVIDVRGRNLEHHHHHH,soluble
20,MTMRNFDLSPLMRQWIGFDKLANALQNAGESQSFPPYNIEKSDDNHYRITLALAGFRQEDLEIQLEGTRLSVKGTPEQPKEEKKWLHQGLMNQPFSLSFTLAENMEVSGATFVNGLLHIDLIRNEPEPIAAQRIAISERPALNS,not soluble
21,MTNFIDRRLNSKNKSTVNRQRFLRRYKNQIKKSVSDAINQRGVTDIDSGESIVIPNRDLSEPTFHQGDGGVKDRVHPGNDQFSTGDRIPRPPKQQGQGGGQGDASDSGEGEDDFTFSISKEEYLNLLFEDLELPNLERNQLDKLIEYKTVRSGFCAEGVASNIDIVKSLQGSIARRIAMTASKRKQIKVLELELQALNNDKHDNIQRKRDLIAEIETLKNKISKVPFIDTFDLRFRNYAKQAVPTSKAVMFCLMDVSGSMDQATKEMAKRFYILLYLFLSRTYKNIDVVYIRHHTQAKEVDEHEFFYSQETGGTIASSALELMNDIITERYNDNQWNIYGAQASDGDNWADDSPRCQALLEQQILPKSRYFSYIEITQRAHQTLWKHYQQVEESHTNFAMQHIKSVADIYPVFRKFFKKNTKSAALEHHHHHH,soluble
22,MTNFQRARSEEQRAVRRQAILDTTAAMLEEMPVGEVSLNELSRRVGLAKSNVLRYFESREAILLELLDRAWQQWVADLPALVHAGVDQGAPVSRRAEQFAAVIAASLAGRQVLCDLLSAQAGVLEHNVSPQVAARYKRAAVANVADIAALAHQHLPELGASAPQLTAVMIMAVGAVWTHARPSPAMLSAYEADPSLTAFKLDFVTTLQEMLATLTAGTIARESA,not soluble
23,MTNLTNYHSHCLYCDGRANMEDFIRFAISEGFSSYGISSHAPLPFSTAWTMEWDRMDDYLSEFARLKEKYADKIELAIGLEIDYLNEESHPAIPRFQELPLDYRIGSVHMLYSPQGKVVDIDTPADIFRQLIDAHFEGDLDYVVHLYYKNLLRMVELGGFDILGHADKMHYNASCYRPGLLDEPWYDALVRDYFAEIARHGYIVEINTKSYHDLGTFYPNERYFPLLKELGIRVQVNSDAHYPERINNSRAEALAALKKVGFDTVVEWHGGQWKDMPLLQLEHHHHHH,soluble
